Source: publication PMC5906681, “BRI1 and BAK1 interact with G proteins and regulate sugar-responsive growth and development in Arabidopsis” (Nature Communications, 2018)

T1: GST-fused BRI1 kinase domain (Arabidopsis, UniProt O22476 814-1196)
T1 construct: BRASSINOSTEROID … 1 (BRI1), Arabidopsis, kinase domain, residues 814-1196; also called GST-BRI1-KD; BRI1-KD; source: E. coli (pGEX-4T-1); not shown: GST, N-terminal, kept
T1 sequence (looked up): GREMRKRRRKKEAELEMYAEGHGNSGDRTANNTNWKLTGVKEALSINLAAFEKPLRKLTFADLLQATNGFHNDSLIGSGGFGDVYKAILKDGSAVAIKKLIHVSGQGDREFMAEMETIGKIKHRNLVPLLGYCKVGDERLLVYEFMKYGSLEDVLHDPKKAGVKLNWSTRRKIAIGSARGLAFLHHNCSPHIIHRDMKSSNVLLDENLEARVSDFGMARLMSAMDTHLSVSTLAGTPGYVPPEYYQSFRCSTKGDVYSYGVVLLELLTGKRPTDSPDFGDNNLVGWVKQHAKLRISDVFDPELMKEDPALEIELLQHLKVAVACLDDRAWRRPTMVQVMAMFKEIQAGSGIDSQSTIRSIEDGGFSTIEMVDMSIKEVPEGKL

B1: MBP-AGB1 (natural protein, Arabidopsis, UniProt P49177 1-377, looked up)
chain: MSVSELKERHAVATETVNNLRDQLRQRRLQLLDTDVARYSAAQGRTRVSFGATDLVCCRTLQGHTGKVYSLDWTPERNRIVSASQDGRLIVWNALTSQKTHAIKLPCAWVMTCAFSPNGQSVACGGLDSVCSIFSLSSTADKDGTVPVSRMLTGHRGYVSCCQYVPNEDAHLITSSGDQTCILWDVTTGLKTSVFGGEFQSGHTADVLSVSISGSNPNWFISGSCDSTARLWDTRAASRAVRTFHGHEGDVNTVKFFPDGYRFGTGSDDGTCRLYDIRTGHQLQVYQPHGDGENGPVTSIAFSVSGRLLFAGYASNNTCYVWDTLLGEVVLDLGLQQDSHRNRISCLGLSADGSALCTGSWDSNLKIWAFGGHRRVI
notes: AGB1, Arabidopsis G protein beta subunit; Cloned into the EcoR I and Pst I sites of pMAL-c2; also called G protein beta subunit; source: E. coli (pMAL-c2); not shown: MBP, N-terminal, kept
B2: MBP-AGG1 (natural protein, Arabidopsis, UniProt Q9FDX9 1-98, looked up)
chain: MREETVVYEQEESVSHGGGKHRILAELARVEQEVAFLEKELKEVENTDIVSTVCEELLSVIEKGPDPLLPLTNGPLNLGWDRWFEGPNGGEGCRCLIL
notes: AGG1, Arabidopsis G protein gamma subunit 1; also called G protein gamma subunit; source: E. coli (pMAL-c2); not shown: MBP, N-terminal, kept
B3: MBP-AGG3 (natural protein, Arabidopsis, UniProt Q6AWT8 1-251, looked up)
chain: MSAPSGGGEGGGKESAAGGVSSSSLAPSSLPPPRPKSPPEYPDLYGKRREAARVQMLEREIGFLEGEIKFIEGVQPASRCIKEVSDFVVANSDPLIPAQRKSRRSFRFWKWLCGPCLSLVSFCCCCQSKCSCHLRKPKCCNCTSCSCIGSKCCDGSCCSNICCCPRLSCPSCSCFRGCWCSCPDMSCCIPSCFRSCSCTRPSCLNKKKSSCCSCNCKIRWSSCFSCPKVRLCSCCFCNCKNLCSNPCCLAF
notes: AGG3, Arabidopsis G protein gamma subunit 3; also called G protein gamma subunit; source: E. coli (pMAL-c2); not shown: MBP, N-terminal, kept
B4: MBP-AGG2 (natural protein, Arabidopsis, UniProt Q93V47 1-100, looked up)
chain: MEAGSSNSSGQLSGRVVDTRGKHRIQAELKRLEQEARFLEEELEQLEKMDNASASCKEFLDSVDSKPDPLLPETTGPVNATWDQWFEGPKEAKRCGCSIL
notes: AGG2, Arabidopsis G protein gamma subunit 2; also called G protein gamma subunit; source: E. coli (pMAL-c2); not shown: MBP, N-terminal, kept

The binders below were run against T1, GST-fused BRI1 kinase domain (assay: pull-down; about 15 μg GST fusion with about 30 μg MBP fusion in 900 μL TGH buffer (10% glycerol, 1% Triton X-100, 1.5 mM MgCl2, 150 mM NaCl, 1 mM EGTA, 50 mM HEPES, pH 7.5); 30 μL GST beads, about 1 h; immunoblot with anti-MBP and anti-GST). Details: both partners purified.

Binding result, binds:
B1
B2
B3
B4
